Reference: patent US20150074844A1 (PURDUE RESEARCH FOUNDATION, published 2015)

What was measured:
PYL6-nLUC = biological target: T1, PYL6-nLUC (Arabidopsis thaliana, UniProt Q8S8E3 1-215); test: firefly luciferase complementation in protoplasts (weaker group)
T1 construct: LUC complementation assay in protoplasts; also called PYLs-nLUC; not shown: N-terminal domain of firefly luciferase
T1 sequence: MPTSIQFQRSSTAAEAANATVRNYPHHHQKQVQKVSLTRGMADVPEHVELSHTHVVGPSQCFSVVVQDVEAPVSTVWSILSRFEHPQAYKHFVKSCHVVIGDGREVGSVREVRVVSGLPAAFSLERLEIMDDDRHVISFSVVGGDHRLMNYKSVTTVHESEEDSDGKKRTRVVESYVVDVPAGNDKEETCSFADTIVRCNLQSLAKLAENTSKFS
Experimental: (§1) To further characterize the interactions between PYL13 and PYLs in vivo, their interactions in protoplasts were examined by the firefly luciferase (LUC) complementation assay. PYL13 was fused to the C-terminal domain of LUC (PYL13-cLUC), and PYLs were fused to the N-terminal domain of LUC (PYLs-nLUC), and co-expressed in protoplasts. After transfection, protoplasts were incubated overnight under light at room temperature, and the LUC activities in living protoplasts were measured. Error bars indicate s.e.m. (n=6). […] PYL13 binds more strongly to PYR1, PYL1-5, PYL7, and PYL10-11 than to PYL6, PYL8-9, or PYL13 (FIG. 5B).

PYL8-nLUC = biological target: T2, PYL8-nLUC (Arabidopsis thaliana, UniProt Q9FGM1 1-188); test: as above
T2 construct: LUC complementation assay in protoplasts; also called PYLs-nLUC; not shown: N-terminal domain of firefly luciferase
T2 sequence: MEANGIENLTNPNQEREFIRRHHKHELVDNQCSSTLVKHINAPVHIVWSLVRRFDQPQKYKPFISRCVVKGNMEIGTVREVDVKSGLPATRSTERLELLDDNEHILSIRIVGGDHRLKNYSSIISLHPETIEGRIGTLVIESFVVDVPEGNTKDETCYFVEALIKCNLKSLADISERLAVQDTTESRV
Experimental: as §1

PYR1-nLUC = biological target: T3, PYR1-nLUC (Arabidopsis thaliana, UniProt O49686 1-191); test: firefly luciferase complementation in protoplasts (stronger group)
T3 construct: LUC complementation assay in protoplasts; also called PYLs-nLUC; not shown: N-terminal domain of firefly luciferase
T3 sequence: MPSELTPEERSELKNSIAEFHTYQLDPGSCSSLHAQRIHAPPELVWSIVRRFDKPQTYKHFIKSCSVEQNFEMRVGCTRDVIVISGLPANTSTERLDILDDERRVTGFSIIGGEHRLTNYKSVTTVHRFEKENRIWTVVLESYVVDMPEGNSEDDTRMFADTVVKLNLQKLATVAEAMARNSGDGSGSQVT
Experimental: as §1

PYL3-nLUC = biological target: T4, PYL3-nLUC (Arabidopsis thaliana, UniProt Q9SSM7 1-209); test: as above
T4 construct: LUC complementation assay in protoplasts; also called PYLs-nLUC; not shown: N-terminal domain of firefly luciferase
T4 sequence: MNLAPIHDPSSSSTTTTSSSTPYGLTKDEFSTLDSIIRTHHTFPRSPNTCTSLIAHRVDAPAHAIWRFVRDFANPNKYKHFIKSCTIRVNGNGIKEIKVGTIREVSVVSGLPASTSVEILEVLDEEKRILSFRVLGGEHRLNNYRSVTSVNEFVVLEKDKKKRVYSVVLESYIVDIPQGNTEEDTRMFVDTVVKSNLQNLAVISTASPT
Experimental: as §1

PYL4-nLUC = biological target: T5, PYL4-nLUC (Arabidopsis thaliana, UniProt O80920 1-207); test: as above
T5 construct: LUC complementation assay in protoplasts; also called PYLs-nLUC; not shown: N-terminal domain of firefly luciferase
T5 sequence: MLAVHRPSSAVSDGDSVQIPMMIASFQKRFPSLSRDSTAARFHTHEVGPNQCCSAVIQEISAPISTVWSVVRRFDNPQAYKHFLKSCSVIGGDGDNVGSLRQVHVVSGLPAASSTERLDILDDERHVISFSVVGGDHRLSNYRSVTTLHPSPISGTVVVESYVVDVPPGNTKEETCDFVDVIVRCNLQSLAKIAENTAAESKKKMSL
Experimental: as §1

PYL5-nLUC = biological target: T6, PYL5-nLUC (Arabidopsis thaliana, UniProt Q9FLB1 1-203); test: as above
T6 construct: LUC complementation assay in protoplasts; also called PYLs-nLUC; not shown: N-terminal domain of firefly luciferase
T6 sequence: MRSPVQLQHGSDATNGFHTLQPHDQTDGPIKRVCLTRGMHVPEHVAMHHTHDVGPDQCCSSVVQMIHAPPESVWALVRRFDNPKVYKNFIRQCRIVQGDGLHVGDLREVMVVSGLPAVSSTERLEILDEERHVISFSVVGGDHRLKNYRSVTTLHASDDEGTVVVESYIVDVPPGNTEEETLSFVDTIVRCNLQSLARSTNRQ
Experimental: as §1

PYL7-nLUC = biological target: T7, PYL7-nLUC (Arabidopsis thaliana, UniProt Q1ECF1 1-211); test: as above
T7 construct: LUC complementation assay in protoplasts; also called PYLs-nLUC; not shown: N-terminal domain of firefly luciferase
T7 sequence: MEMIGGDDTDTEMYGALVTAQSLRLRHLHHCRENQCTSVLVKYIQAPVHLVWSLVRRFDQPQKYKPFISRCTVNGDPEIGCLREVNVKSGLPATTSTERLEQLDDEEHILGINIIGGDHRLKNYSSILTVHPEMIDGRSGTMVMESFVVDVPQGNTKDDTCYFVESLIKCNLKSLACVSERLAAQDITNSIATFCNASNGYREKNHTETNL
Experimental: as §1

PYL10-nLUC = biological target: T8, PYL10-nLUC (Arabidopsis thaliana, UniProt Q8H1R0 1-183); test: as above
T8 construct: LUC complementation assay in protoplasts; also called PYLs-nLUC; not shown: N-terminal domain of firefly luciferase
T8 sequence: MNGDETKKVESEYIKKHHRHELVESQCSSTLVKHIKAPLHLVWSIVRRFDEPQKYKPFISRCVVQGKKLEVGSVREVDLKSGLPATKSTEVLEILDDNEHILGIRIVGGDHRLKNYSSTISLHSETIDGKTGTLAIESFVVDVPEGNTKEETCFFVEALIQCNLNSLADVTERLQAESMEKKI
Experimental: as §1

PYL13-nLUC = biological target: T9, PYL13-nLUC (Arabidopsis thaliana, UniProt Q9SN51 1-164); test: firefly luciferase complementation in protoplasts (weaker group; PYL13 with itself)
T9 construct: LUC complementation assay in protoplasts; also called PYL13 fused to the N-terminal domain of LUC; not shown: N-terminal domain of firefly luciferase
T9 sequence: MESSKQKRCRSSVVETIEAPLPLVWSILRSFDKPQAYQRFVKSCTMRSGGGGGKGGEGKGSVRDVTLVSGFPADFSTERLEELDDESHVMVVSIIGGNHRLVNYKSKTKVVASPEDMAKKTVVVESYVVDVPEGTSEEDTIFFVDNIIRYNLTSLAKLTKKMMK
Experimental: as §1

[1] = biological target: T10, HAI2 fused to the GAL4-activating domain (AD) (Arabidopsis, UniProt Q9LNW3 1-442); test: yeast two-hybrid, growth on media lacking His and His/Ade, with and without ABA (ABA-independent)
T10 construct: Yeast two-hybrid construct
T10 sequence (looked up): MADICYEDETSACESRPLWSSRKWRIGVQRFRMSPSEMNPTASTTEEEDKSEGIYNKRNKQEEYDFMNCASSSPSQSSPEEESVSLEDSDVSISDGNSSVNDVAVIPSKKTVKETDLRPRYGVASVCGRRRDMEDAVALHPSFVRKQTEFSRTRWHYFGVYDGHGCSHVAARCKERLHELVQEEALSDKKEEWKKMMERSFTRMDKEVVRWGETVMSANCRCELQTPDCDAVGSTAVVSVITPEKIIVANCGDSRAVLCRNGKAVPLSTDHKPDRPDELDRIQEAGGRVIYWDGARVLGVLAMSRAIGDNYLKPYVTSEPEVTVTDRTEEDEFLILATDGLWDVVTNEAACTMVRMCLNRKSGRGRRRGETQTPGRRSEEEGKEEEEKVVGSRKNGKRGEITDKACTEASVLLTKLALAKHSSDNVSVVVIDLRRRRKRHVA
Experimental: To investigate how PYL13 may function in plants, the interaction between PYL13 and clade A PP2Cs in yeast two-hybrid assays was examined, as shown in FIG. 3. […] PYL13 binds strongly with ABI1, ABI2, PP2CA, and HAI2 but weakly with HAB1 and HAI1 (FIG. 3A). […] PYL13 fused to the GAL4-DNA-binding domain (BD) was used as […]. Interaction was determined by growth assay on media lacking His and His/Ade in the presence and absence of ABA. Dilutions (10⁻¹, 10⁻², and 10⁻³) of saturated cultures were spotted onto the plates, which were photographed after 5 days.

Measured: binding result

B1: PYL13-cLUC (other)
chain: MESSKQKRCRSSVVETIEAPLPLVWSILRSFDKPQAYQRFVKSCTMRSGGGGGKGGEGKGSVRDVTLVSGFPADFSTERLEELDDESHVMVVSIIGGNHRLVNYKSKTKVVASPEDMAKKTVVVESYVVDVPEGTSEEDTIFFVDNIIRYNLTSLAKLTKKMMK
notes: LUC complementation assay in protoplasts; also called PYL13 fused to the C-terminal domain of LUC; not shown: C-terminal domain of firefly luciferase
binds: PYL6-nLUC | PYL8-nLUC | PYR1-nLUC | PYL3-nLUC | PYL4-nLUC | PYL5-nLUC | PYL7-nLUC | PYL10-nLUC | PYL13-nLUC

B2: PYL13 fused to the GAL4-DNA-binding domain (BD) (other, not shown: small tags and cut ends)
chain: MESSKQKRCRSSVVETIEAPLPLVWSILRSFDKPQAYQRFVKSCTMRSGGGGGKGGEGKGSVRDVTLVSGFPADFSTERLEELDDESHVMVVSIIGGNHRLVNYKSKTKVVASPEDMAKKTVVVESYVVDVPEGTSEEDTIFFVDNIIRYNLTSLAKLTKKMMK
notes: also called BD-PYL13
binds: [1]
